Source: PMC12589613, “ATP-dependent one-dimensional movement maintains immune homeostasis by suppressing spontaneous MDA5 filament assembly” (Cell Research, 2025)

What was measured:
Conditions in all cases: both partners purified
[1] = target: T1, MDA5(R337G) (human, UniProt Q9BYX4 1-1025, R337G, Cy3 on a peptide (Cy3-CLPETGG) ligated by sortase; used unlabelled in some experiments); experiment: single-molecule TIRF imaging (smTIRF) on dsRNA; MAVS-CARD recruitment without LGP2: Cy3-MDA5, Cy3-MDA5(R337G) or Cy3-MDA5(M854K) (100 nM) and AF647-MAVS-CARD (100 nM) on 11.6-kb dsRNA; Imaging Buffer with 2 mM ATP, 23 °C
T1 sequence (looked up): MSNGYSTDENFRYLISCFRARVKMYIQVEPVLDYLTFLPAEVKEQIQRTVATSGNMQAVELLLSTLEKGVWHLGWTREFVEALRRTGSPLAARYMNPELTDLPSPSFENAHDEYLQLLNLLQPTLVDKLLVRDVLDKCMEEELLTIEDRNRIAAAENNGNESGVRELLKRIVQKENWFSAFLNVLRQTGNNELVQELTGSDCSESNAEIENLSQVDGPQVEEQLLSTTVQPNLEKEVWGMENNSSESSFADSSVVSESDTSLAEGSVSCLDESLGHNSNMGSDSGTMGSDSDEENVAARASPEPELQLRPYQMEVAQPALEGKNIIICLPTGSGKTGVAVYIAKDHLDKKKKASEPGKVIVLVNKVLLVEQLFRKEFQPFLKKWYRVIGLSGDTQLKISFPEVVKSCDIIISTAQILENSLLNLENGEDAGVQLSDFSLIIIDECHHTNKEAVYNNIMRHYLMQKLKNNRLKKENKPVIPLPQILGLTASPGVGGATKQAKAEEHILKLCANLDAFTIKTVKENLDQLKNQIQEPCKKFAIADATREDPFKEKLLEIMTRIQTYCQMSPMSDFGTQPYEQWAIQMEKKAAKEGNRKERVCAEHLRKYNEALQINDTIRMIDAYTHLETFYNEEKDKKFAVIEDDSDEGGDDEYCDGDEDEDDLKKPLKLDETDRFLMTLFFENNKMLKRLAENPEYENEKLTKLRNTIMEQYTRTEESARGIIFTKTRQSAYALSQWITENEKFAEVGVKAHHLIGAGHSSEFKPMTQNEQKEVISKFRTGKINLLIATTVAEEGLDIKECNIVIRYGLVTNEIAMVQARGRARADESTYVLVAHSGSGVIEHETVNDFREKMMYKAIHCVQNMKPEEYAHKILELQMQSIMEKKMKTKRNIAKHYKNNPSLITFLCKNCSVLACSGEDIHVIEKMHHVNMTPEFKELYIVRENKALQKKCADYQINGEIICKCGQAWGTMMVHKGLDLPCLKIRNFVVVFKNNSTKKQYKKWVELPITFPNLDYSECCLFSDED

[2] = target: T2, MDA5(M854K) (human, UniProt Q9BYX4 1-1025, M854K, Cy3 on a peptide (Cy3-CLPETGG) ligated by sortase; used unlabelled in some experiments); experiment: as above
T2 sequence (looked up): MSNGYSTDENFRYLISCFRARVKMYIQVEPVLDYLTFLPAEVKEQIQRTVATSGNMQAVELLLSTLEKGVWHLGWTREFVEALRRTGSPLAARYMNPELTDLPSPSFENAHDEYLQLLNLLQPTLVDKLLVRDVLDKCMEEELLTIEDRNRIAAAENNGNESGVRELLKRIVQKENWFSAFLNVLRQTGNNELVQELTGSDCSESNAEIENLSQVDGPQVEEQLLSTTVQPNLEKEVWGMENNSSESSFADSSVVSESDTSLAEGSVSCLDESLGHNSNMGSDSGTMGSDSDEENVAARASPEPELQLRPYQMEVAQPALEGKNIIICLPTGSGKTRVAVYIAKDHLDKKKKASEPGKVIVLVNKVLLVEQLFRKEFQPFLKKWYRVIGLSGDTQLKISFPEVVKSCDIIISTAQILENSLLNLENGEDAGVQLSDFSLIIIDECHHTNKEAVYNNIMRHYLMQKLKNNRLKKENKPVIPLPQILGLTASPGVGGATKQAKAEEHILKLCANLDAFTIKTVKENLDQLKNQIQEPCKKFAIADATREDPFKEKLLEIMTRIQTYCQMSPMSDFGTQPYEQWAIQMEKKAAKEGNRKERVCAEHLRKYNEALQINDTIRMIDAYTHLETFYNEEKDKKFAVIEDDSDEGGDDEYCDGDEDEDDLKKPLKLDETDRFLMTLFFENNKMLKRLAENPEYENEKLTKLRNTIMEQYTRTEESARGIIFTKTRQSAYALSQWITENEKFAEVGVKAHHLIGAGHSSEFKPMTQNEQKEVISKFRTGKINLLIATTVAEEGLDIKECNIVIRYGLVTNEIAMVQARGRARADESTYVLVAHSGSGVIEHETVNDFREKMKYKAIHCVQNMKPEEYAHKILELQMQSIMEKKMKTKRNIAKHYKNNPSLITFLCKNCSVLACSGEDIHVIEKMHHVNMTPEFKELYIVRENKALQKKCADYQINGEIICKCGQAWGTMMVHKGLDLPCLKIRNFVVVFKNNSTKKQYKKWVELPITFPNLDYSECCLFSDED

[3] = target: T1, MDA5(R337G); experiment: single-molecule TIRF imaging (smTIRF) on dsRNA; 60 nM Cy3-LGP2 with or without 60 nM unlabelled MDA5, MDA5(R337G) or MDA5(M854K) on stretched, surface-anchored 11.6-kb dsRNA; Imaging Buffer (20 mM Tris-HCl pH 7.5, 100 mM NaCl, 1.5 mM MgCl2, 2 mM ATP unless stated otherwise), 23 °C
[4] = target: T2, MDA5(M854K); experiment: as above

B1: MAVS-CARD(D23K/E26K/E80K) (domain or fragment, UniProt Q7Z434 1-97, looked up)
chain: MPFAEDKTYKYICRNFSNFCNVKVVKILPYLPCLTARDQDRLRATCTLSGNRDTLWHLFNTLQRRPGWVEYFIAALRGCKLVDLADEVASVYQSYQP
modifications: Alexa Fluor 647 (SNAP-Surface Alexa Fluor 647 substrate) on the SNAP-tag
notes: pET47b plasmid from the Sun Hur lab; also called AF647-MAVS-CARD; not shown: SNAP-tag, C-terminal, kept
binding result [1]: binds
binding result [2]: binds

B2: human LGP2 (natural protein, UniProt Q96C10 1-678, looked up)
chain: MELRSYQWEVIMPALEGKNIIIWLPTGAGKTRAAAYVAKRHLETVDGAKVVVLVNRVHLVTQHGEEFRRMLDGRWTVTTLSGDMGPRAGFGHLARCHDLLICTAELLQMALTSPEEEEHVELTVFSLIVVDECHHTHKDTVYNVIMSQYLELKLQRAQPLPQVLGLTASPGTGGASKLDGAINHVLQLCANLDTWCIMSPQNCCPQLQEHSQQPCKQYNLCHRRSQDPFGDLLKKLMDQIHDHLEMPELSRKFGTQMYEQQVVKLSEAAALAGLQEQRVYALHLRRYNDALLIHDTVRAVDALAALQDFYHREHVTKTQILCAERRLLALFDDRKNELAHLATHGPENPKLEMLEKILQRQFSSSNSPRGIIFTRTRQSAHSLLLWLQQQQGLQTVDIRAQLLIGAGNSSQSTHMTQRDQQEVIQKFQDGTLNLLVATSVAEEGLDIPHCNVVVRYGLLTNEISMVQARGRARADQSVYAFVATEGSRELKRELINEALETLMEQAVAAVQKMDQAEYQAKIRDLQQAALTKRAAQAAQRENQRQQFPVEHVQLLCINCMVAVGHGSDLRKVEGTHHVNVNPNFSNYYNVSRDPVVINKVFKDWKPGGVISCRNCGEVWGLQMIYKSVKLPVLKVRSMLLETPQGRIQAKKWSRVPFSVPDFDFLQHCAENLSDLSLD
modifications: Cy3 or Cy5 on a peptide (GGGC-Cy3/Cy5) ligated by sortase; used unlabelled in some experiments
binding result [3]: binds
binding result [4]: binds
